# A protein production outcome set (Wang et al. 2014)
# Assay: label from the status in PepcDB records
row,Sequence,protein production
1,MHCVFLEFNMSVFKKIYFALSAFIVAPHIFLLMSSRHDNPIFRDIEVWSEKLLGKKISGRSGLVASVVELLSLAPEFRNLFYYRVPRARFFKFLSRPENTLHIHTRTIGPGFFIQHGFATIISAESIGADCWINQQVTIGYVDSTGAPKIGDNVTINAGAKVLGNIVIGDNAKVGANAVVVKNIPADCVVVGVPARIIRRAGARVDEAL,failed
2,MHDATDSLPLCMTRPTRFRWVWWLLAYASLATGIVGIFVPGLPTTVLILNLRLGRLTWLRSRLHYWLLSHPRFGPAIVEWQTYRAVSRKAKWMATLTMSICAAIMLWCVPVFWVKCLSIGSMAVVAIWLWLRPEPPPRPLPAAH,failed
3,MHEDRKRRRGKLRTAVHFKAPRRARFSRFPLFPRLNPMPAAPTDAHAALPIALRDLIRLHAPQATLLAAIGQRILNIQAEGAPTEEAQLVPPDDWLEHGDLAWITRDGALLGLLWSDGAPVPDGAVQVLTLLLSAASAEGASREADMLITQLPAATAWLSAELEFRQVSRTFLELFGLTGADVLGRTVHEVFPDHAALAQQLDSAAAGRAVQLGDERVPSLPGHSGERWLRGSARPYFGGAAAGVLWTVQDVSTEHTQTTQFAALLGTDLPLALLGPGGAVQGASRGMRQLLGEPEDLAEAQAHPQRPLHEWPCWAPAGARLLQDLIQSAEAGRPSPVPSEIALARGGQLPLLVRRSDTVPGLLLAEGVRPAAVSEDNGAARLLHLSGAATILLDPQGRVQLISEPAARLLGFDPHNIALTGLPLPRLHQQLGIKLHTPQGNPLTVPPLSALTLPHNGEVLAVLPGGVTRHLEISLSALPGSGQSTGSSAASPGRSAAPELLLSLRDVTTLRRAQAKLRHDASHDGLTGLLNRSGLRAALGQATAAQTGGMVACLDIDGFGGLNAALSRTAGDLLLIQVAARLNDLAELEGGQAARLADDTFAVYLPQLGAAVGGQKLQAALREPLRTGKRLVPVTFSLGAAPLLAAAPEQALADAEVALQHARRQGRGQLTVFEPDMRAEEAQTFELEDQLRAVLDRGLQHEQFSLLYQPAVSLKDGRVLGAEALLRWTHPELGNVSPARFLPLAQRSDLITSIGEWVVREAVQGRTQLRDATGQRNWRTSVNLSLEELRREGAIERLLPLITRPSALDIEVSASSLLDHSEETLGLLDALRARGARLIVDDFGDGASSLTALTQFPLYGVKLHPTLTTRLPGDQKSLKLVQGTVSLAHSLGLTVTAVGVETYAQLDMLRDLGCDAAQGYALTPPLSAGDLVTWVQGR,failed
4,MHEIAPLSPAAAALADFQPDRGPAALNGAAVFCGFAPRPLDDGFTWADFGCGLGITASILAAANPQGRFFAIDADGQALAAGRALAKAAFLDNLTFLQADYTKPHDLDLPPLDFAVLGNVLCWLDGQERQALLSRLGTLLKPGGIVLATYDALPGAAALVPLRDLLFSVTAGQAANPVARARAAIDWLGAMRAAGIDFFRDNPALGPRLDALIERGPQALAGRFFGGTLRPLHFAQVNAEMAAQGLTFAGRAEAFLNLIDLAVPAALRPRLRAATSRAEVEATRDFIRNEDHRRDLYIKGAAPSDGAALTAFDDGRILGPAAAPGQANPEVSFGAVSLSFRGALFESLLAALDLGPRPVGELCASAALEGVPPGLIRDGLRLLTAGGLARPYARAADVAPAAPPVWPLRLPHPLNRALALTLGLGGPTVALASKVLGDGVVMDNRDALLLVALCDAGPEGAVERALAILADQAIPCGPATTQALTDRLSPLITDILPWLRVLGVVEG,failed
5,MHEKLLTLCDCAFEARLIELEMRVSFQEQALTEISEALAETRLIGARNAELMRHLLEELGKVRNTLYEHPIDEPPPHY,failed
6,MHEQLSPRDQELEARLVELETRLSFQEQALTELSEALADARLTGARNAELIRHLLEDLGKVRSTLFADAADEPPPPHY,not failed
7,MHETKVKLSNGLELHVEVGGNPDHPTILLIMGLGAQMLFWPDFFCKSLIDQGFYVIRFDNRDIGLSSKIRHKGKRLNTLKLMSRFTLGLGNQGAPYTLYDMAEDVSLLLEAMRIKKVNVIGASMGGMIAQIIAAKYPEKVEKLALMFTSNNQPLLPPPFPKQLFSLIGKPKSSDEDGIINHSLKLFEIIGSPGYVNQVEAIQTARKLYQRSYHPAGVLQQFLAILCTGSLLQLDKQISQPTLVIHGSRDRLLPPSHGKAVAKAIKGAKFELIQGMGHDIPPHFIPQLSYLFAHHFRS,failed
8,MHGAEHLLEIFYLLLAAQVMAFIFKRLNQPVVIGEVLAGVLVGPALLGLVHEGEILEFLAELGAVFLLFMVGLETRLKDILAVGKEAFLVAVLGVALPFLGGYLYGLEIGFETLPALFLGTALVATSVGITARVLQELGVLSRPYSRIILGAAVIDDVLGLIVLAVVNGVAETGQVEVGAITRLIVLSVVFVGLAVFLSTLIARLPLERLPVGSPLGFALALGVGMAALAASIGLAPIVGAFLGGMLLSEVREKYRLEEPIFAIESFLAPIFFAMVGVRLELSALASPVVLVAGTVVTVIAILGKVLGGFLGALTQGVRSALTVGVGMAPRGEVGLIVAALGLKAGAVNEEEYAIVLFMVVFTTLFAPFALKPLIAWTERERAAKE,failed
9,MHGHGGYDSDFSDDEHCGESSKRKKRTVEDDLLLQKPFQKEKHGKVAHKQVAAELLDREEARNRRFHLIAMDAYQRHRKFVNDYILYYGGKKEDFKRLGENDKTDLDVIRENHRFLWNEEDEMDMTWEKRLAKKYYDKLFKEYCIADLSKYKENKFGFRWRVEKEVISGKGQFFCGNKYCDKKEGLKSWEVNFGYIEHGEKRNALVKLRLCQECSIKLNFHHRRKEIKSKKRKDKTKKDCEESSHKKSRLSSAEEASKKKDKGHSSSKKSEDSLLRNSDEEESASESELWKGPLPETDEKSQEEEFDEYFQDLFL,not failed
10,MHGTNPVPKLPKKIPMQADPNAAPPALDDETLAFAARLFQYARMGHAEELAELFGQGLPANLRNDKGDSLLMLAAYNGQAATARVILEAGGDPELANDRGQTPLAGAAFKGDADIVRLLLEHGAQVDGAGDGTRTALMVAAMFDRTEIVDLLLAQGADPSRRDASGMSAADMARQMGAQNTPAQLERAQGDRAG,failed
11,MHHQRKTHVDNNIAAVELAKAYRLLNHGPTVLVSARSQGIDNVMAAAWCCALDFAPPKLTVVLDKMTKTREFIEQSGMFVIQVPTVAQLQLTHRVGSQSLADDANKLLNCGVELFEMAGHDLPFVAGCSAWLACKLIPEPNNQLQYDLFIAEVIGAWADTQVFNHGHWHFDTAPADKRSLHYIAGGQFYAIGESFNAD,not failed
12,MHIIQRNPSTNLPEGPYSATSAVKDPSHLPMGHHICFSVPNFDSFLHSLKEKGIETFQKSLPDGKVKQVFFFDPDGNGLEVASRS,failed
13,MHIKYLWMCDCGGKKSQGVKWLPFILILVIAAGLWQLTPPSGLSAPAWHSAIIFVATIASIVAKVLPIGAVGIIGITVFALAYAAGDKTASGAITTALSELNSSLIWLIVVAFMIARGFIKTGLGRRIALQMIRLLGKRTLGLAYGLAFADLILSPAMPSNTARCGGVIYPIADSLARSFDSHPEDESRSKIGTFLITCIGNVNDVTAALFMTGYTGNLLAVKLAANAGVTLSWGSWFIAALLPCLVSFLIVPLLVYWLTRPEIKHTPDAPDLARKELAQMGSMTRGEWLMLATVGVLLVLWIFGSSLGVDATTASFVGLSILLLSGVLTWEDVKSEKGAWDTLIWFAALLMMANQLKKLGFTSWFGNLIGDSIGSTMHGTSWIIILLLLNAAYFYTHYFFASGNAQIAALYAVFLGVGLHLNIPAAPMALMLAFTSSLYCSLTQYTHARGPILFGAGYVPTGVWWRTGFIISLFNQAVFLTVGLAWWKVLGLY,failed
14,MHISIKTLEGKRIKLEVEDSSNTIDLKIHGEPTRELVVDLSPTPDTGAIMMIFIKTLTGRTNTYEVKGSDTIRELKAKHEEKEGIPVEQQRLIFQGRISIKTVKGKSINLEVADSSDTIDLKINGEPTRQLVLRLGPAVLMRIFVSTIKEKTFILEVKGSDTIKKLKSMIHDQGGPPVDQQDLNHLGTKLKNNATISDYNIKPDANLVIMQNGCIC,failed
15,MHKIEQLLQTLAPKGVEFRKLGDIILSLKTGLNPRKFFKLNTPNANNYYVTVRELEEYTIKFTHQTDRIDDNALSLCLKRSNLEKDDIFYSLELEQ,failed
16,MHLRLRTKNGLITITVSQQCTIRELSEEIERKTGIEVAKQKILYGFPQRELRADADKPVESVLQSGDSLTVDKLSAETEQERTVESSPASTENAYVRRKVPDDNSCLFHAICYVFRSGSVAQLRHIISETVRLNPDLYTEAFLGKSNHEYSRWILLPETWGGAIELSILSKYFQTEISVFDIQTLRLDRYGEAENYEERVFLLYDGIHYDPIARAFLGASREYDVTVFKIWDNEALVGAKSVAEEANKNRQYTDLASFTLMCRNCGAKLKGETSAVEHAKQTGHTNFTEA,failed
17,MHLSLALLVLLFSLILSNVINRIFPRLPLPLIQIIFGVGIGFLLKGEVFELETELFLAFIIAPLLFREGEESDITSILRNWKLILFLIFPVIFVSTLGIGYLAKAVLPASVPLSACLALGAALGPTDFVAYSAISKRFSFPKWISYILQGEGLLNDASGLVAFRVAVTALTTGSFSLLDASWNLVISVIGGFLVGLITALLNRLFLTILDNMDAADVTGALLLELVLPIPSYFVAEEIHVSGIIAVVVAGISLASRFKKITVFDAKLDSVSHTIWGTITFVLNGMVFFLLGTELPTLATPVLSSSTYDTLWMLLAIVLLTAIMFGIRFVMISAVFAQRAWRTKRSLKKIWKVATILTFSGVKGTVSIATILLLPVANMTALEHSLLTFTVAGVTLLSFLIGILILPRLATGPAHTTNHYMQIAILNDVVRELEKDLKQSANQGAVYATIDNYNQRLEDLILEQESNDVKEELANIRIMIMEIESEGLEYAYKKGKISELEYNLYQRYIKGLERRINRGFVSSLSYASAVFVLGLRRILHLAFTFKFRFEQEENRRGPQLTEENRDHMTELYLTNTEQVLEALSNLEGVYHSDLLSYLKRSRIREAEIIQSGAFVERVITHLNPDYVDEMLRGYFLERKIIIEYEQAGRISSRYAKQLRKEVNTLENYSLKETSNTLIYDMINLARRGA,failed
18,MHMQLKGKTALVTGSTAGIGKAIATSLVAEGANVLINGRREENVNETIKEIRAQYPDAILQPVVADLGTEQGCQDVIEKYPKVDILINNLGIFEPVEYFDIPDEDWFKLFEVNIMSGVRLTRSYLKKMIERKEGRVIFIASEAAIMPSQEMAHYSATKTMQLSLSRSLAELTTGTNVTVNTIMPGSTLTEGVETMLNSLYPNEQLTIEEAEKRFMKENRPTSIIQRLIRPEEIAHLVTFLSSPLSSAINGSALRIDGGLVRSVF,not failed
19,MHSFPPLLLLLFWGVVSHSFPATLETQEQDVDLVQKYLEKYYNLKNDGRQVEKRRNSGPVVEKLKQMQEFFGLKVTGKPDAETLKVMKQPRCGVPDVAQFVLTEGNPRWEQTHLTYRIENYTPDLPRADVDHAIEKAFQLWSNVTPLTFTKVSEGQADIMISFVRGDHRDNSPFDGPGGNLAHAFQPGPGIGGDAHFDEDERWTNNFREYNLHRVAAHELGHSLGLSHSTDIGALMYPSYTFSGDVQLAQDDIDGIQAIYGRSQNPVQPIGPQTPKACDSKLTFDAITTIRGEVMFFKDRFYMRTNPFYPEVELNFISVFWPQLPNGLEAAYEFADRDEVRFFKGNKYWAVQGQNVLHGYPKDIYSSFGFPRTVKHIDAALSEENTGKTYFFVANKYWRYDEYKRSMDPGYPKMIAHDFPGIGHKVDAVFMKDGFFYFFHGTRQYKFDPKTKRILTLQKANSWFNCRKN,not failed
20,MHSHPSPKFSVITVTYNAEKVLEDTVQSVISQTYHHVEYIIIDGASKDGTLEIVNRYRNRINQLVSEPDKGLYDAMNKGIALATGDYLCFLNAGDSFHEDDTLQKMVHSINGNELPDILYGETALVDAERHFLRMRRLSAPETLNWKSFKQGMLVCHQAFFPRHTLIEPYDLQYRFSADFDWCIHIMKKARTFHNTHLILIDYLAEGMTTQNHKASLLERFRIMTRHYGLLSTLAHHAWFVVRSFSRNSATPSDAPFLEHHHHHH,failed
